T1: recombinant human FAP (human, UniProt Q12884 26-760)
T1 construct: Soluble analyte in SPR; The description calls FAP a homodimer; also called rhFAP
T1 sequence (looked up): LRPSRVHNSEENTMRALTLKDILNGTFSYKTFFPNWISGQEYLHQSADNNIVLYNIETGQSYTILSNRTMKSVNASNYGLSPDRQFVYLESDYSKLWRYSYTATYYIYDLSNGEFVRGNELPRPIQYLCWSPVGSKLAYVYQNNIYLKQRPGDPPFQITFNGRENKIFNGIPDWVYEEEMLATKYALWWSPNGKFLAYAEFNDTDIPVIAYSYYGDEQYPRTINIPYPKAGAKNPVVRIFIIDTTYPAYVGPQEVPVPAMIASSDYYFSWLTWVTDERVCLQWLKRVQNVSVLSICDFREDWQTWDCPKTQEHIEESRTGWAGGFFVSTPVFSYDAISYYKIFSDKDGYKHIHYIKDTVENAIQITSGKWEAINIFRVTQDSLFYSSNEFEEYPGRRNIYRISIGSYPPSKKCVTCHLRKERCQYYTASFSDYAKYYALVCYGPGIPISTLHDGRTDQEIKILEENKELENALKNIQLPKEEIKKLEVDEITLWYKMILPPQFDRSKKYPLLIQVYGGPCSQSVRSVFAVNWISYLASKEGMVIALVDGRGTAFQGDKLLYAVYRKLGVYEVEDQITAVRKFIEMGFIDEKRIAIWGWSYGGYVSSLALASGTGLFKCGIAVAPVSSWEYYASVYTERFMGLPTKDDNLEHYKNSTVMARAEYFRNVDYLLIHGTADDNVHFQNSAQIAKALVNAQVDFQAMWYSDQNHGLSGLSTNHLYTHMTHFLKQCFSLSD


Each binder was assayed against T1, recombinant human FAP (assay: SPR, captured by anti-human IgG (Fc), human FAP analyte, 1:1 binding model).
Description: Bindings of T1.04, T1.05, T1.06, T1.07, T1.08, T1.09, T1.10 and T1.11 to recombinant human […] were identified by surface plasmon resonance (SPR). The surface of the CM5 chip was activated with a 1:1 mixture of […] (N-hydroxysuccinimide) and […] (1-Ethyl-3-(3-dimethylaminopropyl) carbodiimide), and 25 μg/ml of anti-human IgG (Fc) antibody was immobilized for 400 seconds at a rate of 10 μl/min. The remaining active ester groups were blocked with 1 M ethanolamine.
Specifically, human proteins T1.04, T1.05, T1.06, T1.07, T1.08, T1.09, T1.10 and T1.11 were diluted to 1 μg/ml, 1 μg/ml, 1 μg/ml, 1 μg/ml, 0.5 μg/ml, 0.5 μg/ml, 0.5 μg/ml, and 1 μg/ml, respectively, and reacted on a CM5 chip immobilized with an anti-human IgG (Fc) antibody. The recombinant human FAP was diluted to 25 nM or 50 nM in 1×HBS-EP+buffer solution and diluted by serial dilution. The diluted recombinant human FAP was reacted at a rate of 30 μl/min. The association and dissociation times were 180 seconds and 400 seconds, respectively. After the dissociation, stabilization was performed for 60 seconds, and then a regeneration was performed for 30 seconds with a 10 mM glycine pH 1.5 solution at a rate of 30 μl/min.

Kd | koff | kon | Binder
0.596 nM | 6.22e-05 s⁻¹ | 104000 M⁻¹ s⁻¹ | T1.06 (anti-hu FAP/hu IL-12, hu IgG1 DANG (2 + 1, HC scFv)) (bispecific antibody, Anti-FAP scFv at the C-terminus of the heavy chain; knob-in-hole with the IL-12 arm) heavy: QVQLVQSGAEVKKPGASVKVSCKTSRYTFTEYTIHWVRQAPGQRLEWIGGINPNNGIPNYNQKFKGRVTITVDTSASTAYMELSSLRSEDTAVYYCARRRIAYGYDEGHAMDYWGQGTLVTVSSASTKGPSVFPLAPSSKSTSGGTAALGCLVKDYFPEPVTVSWNSGALTSGVHTFPAVLQSSGLYSLSSVVTVPSSSLGTQTYICNVNHKPSNTKVDKKVEPKSCDKTHTCPPCPAPELLGGPSVFLFPPKPKDTLMISRTPEVTCVVVAVSHEDPEVKFNWYVDGVEVHNAKTKPREEQYGSTYRVVSVLTVLHQDWLNGKEYKCKVSNKALPAPIEKTISKAKGQPREPQVYTLPPSRDELTKNQVSLWCLVKGFYPSDIAVEWESNGQPENNYKTTPPVLDSDGSFFLYSKLTVDKSRWQQGNVFSCSVMHEALHNHYTQKSLSLSPGKGGGGSGGGGSGGGGSQVQLVQSGAEVKKPGASVKVSCKTSRYTFTEYTIHWVRQAPGQRLEWIGGINPNNGIPNYNQKFKGRVTITVDTSASTAYMELSSLRSEDTAVYYCARRRIAYGYDEGHAMDYWGQGTLVTVSSGGGGSGGGGSGGGGSGGGGSDIVMTQSPDSLAVSLGERATINCKSSQSLLYSRNQKNYLAWYQQKPGQPPKLLIFWASTRESGVPDRFSGSGFGTDFTLTISSLQAEDVAVYYCQQYFSYPLTFGQGTKVEIK light: not shown not shown
0.128 nM | 7.64e-05 s⁻¹ | 597000 M⁻¹ s⁻¹ | T1.07 (anti-hu FAP/hu IL-12 mut2, hu IgG1 DANG (2 + 1, HC scFv)) (bispecific antibody, Anti-FAP scFv at the C-terminus of the heavy chain; knob-in-hole with the IL-12 mut2 arm) heavy: QVQLVQSGAEVKKPGASVKVSCKTSRYTFTEYTIHWVRQAPGQRLEWIGGINPNNGIPNYNQKFKGRVTITVDTSASTAYMELSSLRSEDTAVYYCARRRIAYGYDEGHAMDYWGQGTLVTVSSASTKGPSVFPLAPSSKSTSGGTAALGCLVKDYFPEPVTVSWNSGALTSGVHTFPAVLQSSGLYSLSSVVTVPSSSLGTQTYICNVNHKPSNTKVDKKVEPKSCDKTHTCPPCPAPELLGGPSVFLFPPKPKDTLMISRTPEVTCVVVAVSHEDPEVKFNWYVDGVEVHNAKTKPREEQYGSTYRVVSVLTVLHQDWLNGKEYKCKVSNKALPAPIEKTISKAKGQPREPQVYTLPPSRDELTKNQVSLWCLVKGFYPSDIAVEWESNGQPENNYKTTPPVLDSDGSFFLYSKLTVDKSRWQQGNVFSCSVMHEALHNHYTQKSLSLSPGKGGGGSGGGGSGGGGSQVQLVQSGAEVKKPGASVKVSCKTSRYTFTEYTIHWVRQAPGQRLEWIGGINPNNGIPNYNQKFKGRVTITVDTSASTAYMELSSLRSEDTAVYYCARRRIAYGYDEGHAMDYWGQGTLVTVSSGGGGSGGGGSGGGGSGGGGSDIVMTQSPDSLAVSLGERATINCKSSQSLLYSRNQKNYLAWYQQKPGQPPKLLIFWASTRESGVPDRFSGSGFGTDFTLTISSLQAEDVAVYYCQQYFSYPLTFGQGTKVEIK light: not shown not shown
0.177 nM | 7.87e-05 s⁻¹ | 446000 M⁻¹ s⁻¹ | T1.08 (anti-hu FAP/hu IL-12, hu IgG1 DANG (2 + 1, LC scFv)) (bispecific antibody, Anti-FAP scFv at the C-terminus of the light chain; knob-in-hole with the IL-12 arm) heavy: QVQLVQSGAEVKKPGASVKVSCKTSRYTFTEYTIHWVRQAPGQRLEWIGGINPNNGIPNYNQKFKGRVTITVDTSASTAYMELSSLRSEDTAVYYCARRRIAYGYDEGHAMDYWGQGTLVTVSSASTKGPSVFPLAPSSKSTSGGTAALGCLVKDYFPEPVTVSWNSGALTSGVHTFPAVLQSSGLYSLSSVVTVPSSSLGTQTYICNVNHKPSNTKVDKKVEPKSCDKTHTCPPCPAPELLGGPSVFLFPPKPKDTLMISRTPEVTCVVVAVSHEDPEVKFNWYVDGVEVHNAKTKPREEQYGSTYRVVSVLTVLHQDWLNGKEYKCKVSNKALPAPIEKTISKAKGQPREPQVYTLPPSRDELTKNQVSLWCLVKGFYPSDIAVEWESNGQPENNYKTTPPVLDSDGSFFLYSKLTVDKSRWQQGNVFSCSVMHEALHNHYTQKSLSLSPGK light: not shown not shown
0.214 nM | 0.000111 s⁻¹ | 517000 M⁻¹ s⁻¹ | T1.09 (anti-hu FAP/hu IL-12 mut2, hu IgG1 DANG (2 + 1, LC scFv)) (bispecific antibody, Anti-FAP scFv at the C-terminus of the light chain; knob-in-hole with the IL-12 mut2 arm) heavy: QVQLVQSGAEVKKPGASVKVSCKTSRYTFTEYTIHWVRQAPGQRLEWIGGINPNNGIPNYNQKFKGRVTITVDTSASTAYMELSSLRSEDTAVYYCARRRIAYGYDEGHAMDYWGQGTLVTVSSASTKGPSVFPLAPSSKSTSGGTAALGCLVKDYFPEPVTVSWNSGALTSGVHTFPAVLQSSGLYSLSSVVTVPSSSLGTQTYICNVNHKPSNTKVDKKVEPKSCDKTHTCPPCPAPELLGGPSVFLFPPKPKDTLMISRTPEVTCVVVAVSHEDPEVKFNWYVDGVEVHNAKTKPREEQYGSTYRVVSVLTVLHQDWLNGKEYKCKVSNKALPAPIEKTISKAKGQPREPQVYTLPPSRDELTKNQVSLWCLVKGFYPSDIAVEWESNGQPENNYKTTPPVLDSDGSFFLYSKLTVDKSRWQQGNVFSCSVMHEALHNHYTQKSLSLSPGK light: not shown not shown
0.0257 nM | 1.5e-05 s⁻¹ | 583000 M⁻¹ s⁻¹ | T1.04 (anti-hu FAP/hu IL-12, hu IgG1 DANG (2 + 1)) (bispecific antibody, DVD-Ig form of the anti-FAP arm, knob-in-hole with the IL-12 arm) heavy: QVQLVQSGAEVKKPGASVKVSCKTSRYTFTEYTIHWVRQAPGQRLEWIGGINPNNGIPNYNQKFKGRVTITVDTSASTAYMELSSLRSEDTAVYYCARRRIAYGYDEGHAMDYWGQGTLVTVSSGGGGSGGGGSGGGGSQVQLVQSGAEVKKPGASVKVSCKTSRYTFTEYTIHWVRQAPGQRLEWIGGINPNNGIPNYNQKFKGRVTITVDTSASTAYMELSSLRSEDTAVYYCARRRIAYGYDEGHAMDYWGQGTLVTVSSASTKGPSVFPLAPSSKSTSGGTAALGCLVKDYFPEPVTVSWNSGALTSGVHTFPAVLQSSGLYSLSSVVTVPSSSLGTQTYICNVNHKPSNTKVDKKVEPKSCDKTHTCPPCPAPELLGGPSVFLFPPKPKDTLMISRTPEVTCVVVAVSHEDPEVKFNWYVDGVEVHNAKTKPREEQYGSTYRVVSVLTVLHQDWLNGKEYKCKVSNKALPAPIEKTISKAKGQPREPQVYTLPPSRDELTKNQVSLWCLVKGFYPSDIAVEWESNGQPENNYKTTPPVLDSDGSFFLYSKLTVDKSRWQQGNVFSCSVMHEALHNHYTQKSLSLSPGK light: not shown not shown
0.0932 nM | 5.83e-05 s⁻¹ | 625000 M⁻¹ s⁻¹ | T1.05 (anti-hu FAP/hu IL-12 mut2, hu IgG1 DANG (2 + 1)) (bispecific antibody, DVD-Ig form of the anti-FAP arm, knob-in-hole with the IL-12 mut2 arm) heavy: QVQLVQSGAEVKKPGASVKVSCKTSRYTFTEYTIHWVRQAPGQRLEWIGGINPNNGIPNYNQKFKGRVTITVDTSASTAYMELSSLRSEDTAVYYCARRRIAYGYDEGHAMDYWGQGTLVTVSSGGGGSGGGGSGGGGSQVQLVQSGAEVKKPGASVKVSCKTSRYTFTEYTIHWVRQAPGQRLEWIGGINPNNGIPNYNQKFKGRVTITVDTSASTAYMELSSLRSEDTAVYYCARRRIAYGYDEGHAMDYWGQGTLVTVSSASTKGPSVFPLAPSSKSTSGGTAALGCLVKDYFPEPVTVSWNSGALTSGVHTFPAVLQSSGLYSLSSVVTVPSSSLGTQTYICNVNHKPSNTKVDKKVEPKSCDKTHTCPPCPAPELLGGPSVFLFPPKPKDTLMISRTPEVTCVVVAVSHEDPEVKFNWYVDGVEVHNAKTKPREEQYGSTYRVVSVLTVLHQDWLNGKEYKCKVSNKALPAPIEKTISKAKGQPREPQVYTLPPSRDELTKNQVSLWCLVKGFYPSDIAVEWESNGQPENNYKTTPPVLDSDGSFFLYSKLTVDKSRWQQGNVFSCSVMHEALHNHYTQKSLSLSPGK light: not shown not shown

Reference: patent US20250144178A1 (KANAPH THERAPEUTICS, published 2025)
